Data published in article PMC9597087.

Target: microtubules (human (endogenous in U2-OS)) (UniProt Q71U36)
Assay: FRAP (fluorescence recovery after photobleaching); living U2-OS cells 48h after transfection, interphase, no STLC; 1.5 um^2 areas bleached, spinning disk confocal; traces analysed with easyFRAP, normalised to pre-bleaching intensity

mobility fraction (FRAP): 0.06
Substance: GFP-tagged Eg5(T107N) (from UniProt P52732 1-1056) (natural protein)
